Assays:
[1] = biological target: T1, reduced CFH (Homo sapiens (Human), UniProt P08603 860-1231, limits assumed); test: direct ELISA on reduced CFH
T1 construct: also called CFH (reduced)
T1 sequence: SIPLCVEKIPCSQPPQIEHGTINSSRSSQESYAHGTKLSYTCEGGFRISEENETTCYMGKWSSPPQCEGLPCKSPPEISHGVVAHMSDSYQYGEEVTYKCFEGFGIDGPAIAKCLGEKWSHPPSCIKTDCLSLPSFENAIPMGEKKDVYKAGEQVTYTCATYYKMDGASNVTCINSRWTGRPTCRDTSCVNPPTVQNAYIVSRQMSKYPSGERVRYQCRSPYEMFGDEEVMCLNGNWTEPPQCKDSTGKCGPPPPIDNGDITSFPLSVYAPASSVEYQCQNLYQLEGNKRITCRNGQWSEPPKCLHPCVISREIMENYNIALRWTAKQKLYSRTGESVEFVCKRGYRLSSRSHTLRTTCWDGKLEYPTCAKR

[2] = biological target: T2, non-reduced CFH; test: direct ELISA on non-reduced CFH
T2 construct: also called CFH (NON-REDUCED)
T2 chain: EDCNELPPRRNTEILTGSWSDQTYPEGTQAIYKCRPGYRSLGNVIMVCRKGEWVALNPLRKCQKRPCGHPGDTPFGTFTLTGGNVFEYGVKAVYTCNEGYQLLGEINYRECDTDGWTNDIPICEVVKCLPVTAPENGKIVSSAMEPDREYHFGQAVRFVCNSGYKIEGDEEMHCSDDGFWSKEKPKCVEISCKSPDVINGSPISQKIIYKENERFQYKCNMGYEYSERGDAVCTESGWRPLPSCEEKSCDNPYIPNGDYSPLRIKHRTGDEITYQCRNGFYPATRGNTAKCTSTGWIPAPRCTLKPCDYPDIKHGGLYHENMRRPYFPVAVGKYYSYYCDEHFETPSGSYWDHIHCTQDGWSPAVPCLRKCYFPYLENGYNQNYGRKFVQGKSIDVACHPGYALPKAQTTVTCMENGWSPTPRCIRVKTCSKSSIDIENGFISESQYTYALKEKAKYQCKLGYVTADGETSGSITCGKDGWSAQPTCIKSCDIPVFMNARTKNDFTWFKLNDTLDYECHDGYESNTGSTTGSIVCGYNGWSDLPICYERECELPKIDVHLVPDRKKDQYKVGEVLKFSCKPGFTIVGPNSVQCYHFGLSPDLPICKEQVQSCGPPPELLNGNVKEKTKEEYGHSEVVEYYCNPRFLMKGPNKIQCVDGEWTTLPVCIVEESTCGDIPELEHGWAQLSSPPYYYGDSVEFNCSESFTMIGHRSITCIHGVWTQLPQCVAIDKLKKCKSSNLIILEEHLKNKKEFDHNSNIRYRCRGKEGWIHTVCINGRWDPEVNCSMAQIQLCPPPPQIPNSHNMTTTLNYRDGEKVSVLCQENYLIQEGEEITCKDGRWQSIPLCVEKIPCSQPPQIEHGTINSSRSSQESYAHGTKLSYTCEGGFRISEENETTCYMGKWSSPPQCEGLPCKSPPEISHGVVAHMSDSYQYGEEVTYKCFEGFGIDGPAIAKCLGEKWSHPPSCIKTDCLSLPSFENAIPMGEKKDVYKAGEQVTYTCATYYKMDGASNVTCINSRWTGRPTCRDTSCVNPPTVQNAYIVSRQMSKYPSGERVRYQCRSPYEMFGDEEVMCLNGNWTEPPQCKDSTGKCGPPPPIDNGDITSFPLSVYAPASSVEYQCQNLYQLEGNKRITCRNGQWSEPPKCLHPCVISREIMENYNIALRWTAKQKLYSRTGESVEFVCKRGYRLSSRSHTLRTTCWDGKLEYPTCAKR

[3] = biological target: T3, immobilised biotinylated full-length CFH (reduced) (Homo sapiens (Human), UniProt P08603 19-1231, biotinylated; reduced with 20 mM dithiothreitol); test: BLI (Octet), biotinylated reduced CFH on streptavidin sensors, antibody 33.3-2.08 nM as analyte, 1:1 global fit; lower end of the printed KD range
T3 construct: Purified endogenous full-length CFH immobilised by biotin on streptavidin BLI sensors; also called immobilised CFH; surface immobilised CFH
Experimental: Biolayer interferometry (BLI, Octet 96Red) was used to measure binding kinetics of the interactions between anti-CFH antibodies and CFH. The CFH used for kinetics measurements was purified endogenous CFH was biotinylated and reduced with 20 mM dithiothreitol (DTT). An irrelevant protein was treated in the same way as a negative control reference. The CFH or irrelevant control ligands were each immobilised via the conjugated biotin onto a set of streptavidin (SA) sensor tips. Sensors were dipped into reference kinetics buffer (Phosphate buffered saline (PBS), pH 7.4, 0.05% Tween-20, 2% w/v not fat milk powder) to achieve a steady baseline. Association was measured over 300 s by dipping the sensors into an analyte concentration series of anti-CFH antibody (33.3-2.08 nM in kinetics buffer) as well as a no analyte control (kinetics buffer only). Dissociation was measured over 1500 s by dipping the sensors into kinetics buffer only. Baseline, association and dissociation steps were all measured with sensors shaking at 800 rpm and at a temperature of 23° C. Data was analysed with Data Analysis HT 11.1.0.25 software. Data from reference sensors and analyte control were subtracted. Data was corrected by aligning y-axis to average of baseline 5 s before association, inter step correction aligned to start of baseline and using Savitzky-Golay filtering. […]

[4] = biological target: T4, reduced CFHR3 (UniProt Q02985 19-330, limits assumed); test: ELISA on reduced CFHR3
T4 sequence (looked up): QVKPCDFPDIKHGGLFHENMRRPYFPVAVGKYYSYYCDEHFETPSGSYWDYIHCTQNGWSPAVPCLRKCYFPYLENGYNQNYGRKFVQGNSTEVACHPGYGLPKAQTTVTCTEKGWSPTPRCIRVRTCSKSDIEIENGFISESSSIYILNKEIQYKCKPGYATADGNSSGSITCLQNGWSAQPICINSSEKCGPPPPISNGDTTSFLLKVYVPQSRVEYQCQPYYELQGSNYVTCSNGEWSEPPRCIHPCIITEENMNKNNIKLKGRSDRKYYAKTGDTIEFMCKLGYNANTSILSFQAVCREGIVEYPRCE

[5] = biological target: T3, immobilised biotinylated full-length …; test: BLI, biotinylated reduced full-length CFH on streptavidin tips, 1:1 global fit
Experimental: Biolayer interferometry (BLI, Octet 96Red) was used to measure binding kinetics of the interactions between anti-CFH antibodies and CFH. The CFH used for kinetics measurements was purified endogenous CFH was biotinylated and reduced with 20 mM dithiothreitol (DTT). An irrelevant protein was treated in the same way as a negative control reference. The CFH or irrelevant control ligands were each immobilised via the conjugated biotin onto a set of streptavidin (SA) sensor tips. Sensors were dipped into reference kinetics buffer (Phosphate buffered saline (PBS), pH 7.4, 0.05% Tween-20, 2% w/v not fat milk powder) to achieve a steady baseline. Association was measured over 300 s by dipping the sensors into an analyte concentration series of anti-CFH antibody (33.3-2.08 nM in kinetics buffer) as well as a no analyte control (kinetics buffer only). Dissociation was measured over 1500 s by dipping the sensors into kinetics buffer only. Baseline, association and dissociation steps were all measured with sensors shaking at 800 rpm and at a temperature of 23° C. Data was analysed with Data Analysis HT 11.1.0.25 software. Data from reference sensors and analyte control were subtracted. Data was corrected by aligning y-axis to average of baseline 5 s before association, inter step correction aligned to start of baseline and using Savitzky-Golay filtering. Data was fit to a 1:1 model using association and dissociation phases and kinetic rate constants are reported for the global fit where each curve R2 is >0.9.

B1: ATL4717 (antibody, human IgG1, kappa, V domains shown)
VH: QVQLVESGGGMVQPGRSLRLSCAASGFTFSIYGMHWVRQAPGRGLEWVAVMSFDGKTKYYADSVKGRFTISRDNSKNTLYLQMNSLRRVDTAVYYCAKGGATAAVFDSWGQGTLVTVSS
VL: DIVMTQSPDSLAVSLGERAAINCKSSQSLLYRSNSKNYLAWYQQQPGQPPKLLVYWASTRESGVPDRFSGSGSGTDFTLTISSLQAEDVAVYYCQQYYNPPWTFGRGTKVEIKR
notes: Human IgG1; also called ATL0004717; ATL04717
In the case of B1, the “EC50 (read off the curve)” value [1] is reported as roughly 100 pM and the “EC50 (read off the curve)” value [2] is reported as roughly 200 pM.

B2: ATL5170 (antibody, human IgG1, kappa, V domains shown)
VH: QVQLVESGGGVVQPGRSLRLSCAASGFTFSNYGMHWVRQAPGKGLEWVAVTSFDGKTKYYADSVKGRFTISRDNSKNTLYLQMNSLRAEDTAVYYCAKGGATAAVLDSWGQGTLVTVSS
VL: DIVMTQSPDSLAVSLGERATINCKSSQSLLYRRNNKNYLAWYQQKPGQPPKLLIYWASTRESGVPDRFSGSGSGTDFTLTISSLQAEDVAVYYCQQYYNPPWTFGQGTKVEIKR
notes: IgG1; also called ATL_0005170
B2 was tested, and the Kd [3] was 0.402 to 1.46 nM, the binding result [4] was “no binding (tested: 100 ug/ml)” and the Kd [5] was 0.85 nM. For the same binder, the koff [5] was 0.000348 s⁻¹ and the kon [5] was 409000 M⁻¹ s⁻¹.

Source: US20250304666A1 (ALCHEMAB THERAPEUTICS, published 2025)
